Results as given in the supplement of paper PMC10065799, “High-throughput profiling of sequence recognition by tyrosine kinases and SH2 domains using bacterial peptide display” (eLife, 2023).
One block for each sequence: values may come before it.

Experiments:
c-Src = assay: phosphorylation enrichment, bacterial display (enrichment ratio); higher = better substrate or ligand; peptides without Tyr show the background
Fes = Fes (UniProt P07332); assay: as above
EPHB2 = EPHB2 (UniProt P29323); assay: as above
EPHB1 = EPHB1 (UniProt P54762); assay: as above
EPHB1, sequence (P54762 whole entry, looked up): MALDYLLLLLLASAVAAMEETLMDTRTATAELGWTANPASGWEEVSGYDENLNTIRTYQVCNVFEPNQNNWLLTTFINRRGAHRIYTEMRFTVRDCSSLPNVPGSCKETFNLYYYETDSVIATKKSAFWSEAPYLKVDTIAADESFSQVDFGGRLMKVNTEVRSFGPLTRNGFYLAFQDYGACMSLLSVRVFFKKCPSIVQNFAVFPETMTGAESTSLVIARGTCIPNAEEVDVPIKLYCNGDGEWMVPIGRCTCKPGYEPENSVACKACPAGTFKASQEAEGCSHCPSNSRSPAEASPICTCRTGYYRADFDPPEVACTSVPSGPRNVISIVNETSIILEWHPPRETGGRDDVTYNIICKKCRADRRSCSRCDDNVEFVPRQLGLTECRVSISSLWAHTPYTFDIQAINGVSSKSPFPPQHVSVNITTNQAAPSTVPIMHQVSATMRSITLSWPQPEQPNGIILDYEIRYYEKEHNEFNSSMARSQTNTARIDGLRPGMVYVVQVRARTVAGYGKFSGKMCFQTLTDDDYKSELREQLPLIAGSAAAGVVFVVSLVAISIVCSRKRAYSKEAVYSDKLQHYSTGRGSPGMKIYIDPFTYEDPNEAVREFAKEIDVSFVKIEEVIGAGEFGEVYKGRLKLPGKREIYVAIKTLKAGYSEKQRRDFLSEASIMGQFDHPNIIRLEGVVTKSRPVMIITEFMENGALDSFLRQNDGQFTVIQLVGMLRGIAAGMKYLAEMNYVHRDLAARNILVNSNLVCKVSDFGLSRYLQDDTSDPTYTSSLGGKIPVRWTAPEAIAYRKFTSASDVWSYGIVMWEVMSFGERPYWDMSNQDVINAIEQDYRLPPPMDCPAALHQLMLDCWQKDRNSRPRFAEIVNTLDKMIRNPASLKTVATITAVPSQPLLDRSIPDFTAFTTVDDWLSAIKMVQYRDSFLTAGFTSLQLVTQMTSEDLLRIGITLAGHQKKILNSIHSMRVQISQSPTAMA

Hck = Hck (UniProt P08631); assay: as above
Hck, sequence (P08631 whole entry, looked up): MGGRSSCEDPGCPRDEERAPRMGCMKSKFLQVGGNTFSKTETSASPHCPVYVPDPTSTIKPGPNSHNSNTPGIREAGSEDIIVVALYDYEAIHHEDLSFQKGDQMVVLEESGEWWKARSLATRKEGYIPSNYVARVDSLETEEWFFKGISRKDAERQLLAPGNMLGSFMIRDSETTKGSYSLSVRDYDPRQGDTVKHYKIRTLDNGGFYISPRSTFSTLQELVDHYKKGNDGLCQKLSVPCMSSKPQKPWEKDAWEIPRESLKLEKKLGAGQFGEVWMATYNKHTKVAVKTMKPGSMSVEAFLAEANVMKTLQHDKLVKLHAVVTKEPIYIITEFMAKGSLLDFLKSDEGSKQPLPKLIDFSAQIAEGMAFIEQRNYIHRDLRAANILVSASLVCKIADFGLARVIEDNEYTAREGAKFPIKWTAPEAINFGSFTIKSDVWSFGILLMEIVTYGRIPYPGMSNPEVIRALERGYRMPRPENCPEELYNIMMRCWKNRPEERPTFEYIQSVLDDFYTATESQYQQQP

FGFR3 = FGFR3 (UniProt P22607); assay: as above
FGFR3, sequence (P22607 whole entry, looked up): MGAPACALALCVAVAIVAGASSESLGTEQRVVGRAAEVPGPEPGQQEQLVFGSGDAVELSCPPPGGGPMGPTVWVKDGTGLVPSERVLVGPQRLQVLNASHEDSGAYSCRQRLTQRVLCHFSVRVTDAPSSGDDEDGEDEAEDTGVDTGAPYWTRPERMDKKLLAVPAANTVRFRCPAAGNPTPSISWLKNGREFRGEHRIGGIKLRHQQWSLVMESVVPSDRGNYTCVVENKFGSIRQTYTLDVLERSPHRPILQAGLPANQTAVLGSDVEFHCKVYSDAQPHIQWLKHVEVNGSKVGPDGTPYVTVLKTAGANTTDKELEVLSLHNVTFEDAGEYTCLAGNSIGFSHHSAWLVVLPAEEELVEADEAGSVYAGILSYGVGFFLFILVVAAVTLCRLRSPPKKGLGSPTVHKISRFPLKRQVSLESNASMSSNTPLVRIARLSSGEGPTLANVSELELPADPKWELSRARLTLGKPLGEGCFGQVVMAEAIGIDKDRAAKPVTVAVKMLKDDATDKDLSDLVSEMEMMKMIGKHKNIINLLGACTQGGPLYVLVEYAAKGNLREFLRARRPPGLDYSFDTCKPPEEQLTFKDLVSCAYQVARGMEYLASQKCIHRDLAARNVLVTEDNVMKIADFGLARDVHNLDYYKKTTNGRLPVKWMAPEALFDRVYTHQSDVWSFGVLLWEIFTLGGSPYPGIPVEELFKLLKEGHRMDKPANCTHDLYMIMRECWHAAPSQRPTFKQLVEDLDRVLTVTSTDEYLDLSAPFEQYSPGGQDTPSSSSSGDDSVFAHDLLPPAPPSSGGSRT

Fer (mouse) = assay: as above
c-Abl (mouse) = assay: as above
FGFR1 = FGFR1 (UniProt P11362); assay: as above
FGFR1, sequence (P11362 whole entry, looked up): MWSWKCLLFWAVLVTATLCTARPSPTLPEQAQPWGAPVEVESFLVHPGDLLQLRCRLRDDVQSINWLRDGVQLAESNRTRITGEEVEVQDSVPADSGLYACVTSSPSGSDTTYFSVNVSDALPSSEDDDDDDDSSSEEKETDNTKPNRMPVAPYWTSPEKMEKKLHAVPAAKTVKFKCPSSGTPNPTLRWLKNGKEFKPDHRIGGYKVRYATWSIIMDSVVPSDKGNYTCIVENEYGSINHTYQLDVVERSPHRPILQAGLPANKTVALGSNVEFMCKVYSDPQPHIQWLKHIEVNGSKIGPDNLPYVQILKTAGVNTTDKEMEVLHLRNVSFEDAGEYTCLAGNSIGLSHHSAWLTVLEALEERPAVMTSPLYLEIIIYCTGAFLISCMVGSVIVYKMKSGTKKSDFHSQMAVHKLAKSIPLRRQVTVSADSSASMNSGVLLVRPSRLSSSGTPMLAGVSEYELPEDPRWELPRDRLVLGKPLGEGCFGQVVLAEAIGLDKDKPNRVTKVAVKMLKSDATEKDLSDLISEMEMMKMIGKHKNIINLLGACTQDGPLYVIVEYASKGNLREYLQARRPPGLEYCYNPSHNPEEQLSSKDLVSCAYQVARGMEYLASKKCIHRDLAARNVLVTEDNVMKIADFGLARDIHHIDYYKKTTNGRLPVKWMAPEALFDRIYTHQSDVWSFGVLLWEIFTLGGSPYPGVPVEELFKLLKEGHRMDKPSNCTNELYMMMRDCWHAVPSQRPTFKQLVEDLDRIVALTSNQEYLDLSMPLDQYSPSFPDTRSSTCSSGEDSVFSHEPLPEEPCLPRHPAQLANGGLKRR

MERTK = MERTK (UniProt Q12866); assay: as above
Jak2 = Jak2 (UniProt O60674); assay: as above
Jak2, sequence (O60674 whole entry, looked up): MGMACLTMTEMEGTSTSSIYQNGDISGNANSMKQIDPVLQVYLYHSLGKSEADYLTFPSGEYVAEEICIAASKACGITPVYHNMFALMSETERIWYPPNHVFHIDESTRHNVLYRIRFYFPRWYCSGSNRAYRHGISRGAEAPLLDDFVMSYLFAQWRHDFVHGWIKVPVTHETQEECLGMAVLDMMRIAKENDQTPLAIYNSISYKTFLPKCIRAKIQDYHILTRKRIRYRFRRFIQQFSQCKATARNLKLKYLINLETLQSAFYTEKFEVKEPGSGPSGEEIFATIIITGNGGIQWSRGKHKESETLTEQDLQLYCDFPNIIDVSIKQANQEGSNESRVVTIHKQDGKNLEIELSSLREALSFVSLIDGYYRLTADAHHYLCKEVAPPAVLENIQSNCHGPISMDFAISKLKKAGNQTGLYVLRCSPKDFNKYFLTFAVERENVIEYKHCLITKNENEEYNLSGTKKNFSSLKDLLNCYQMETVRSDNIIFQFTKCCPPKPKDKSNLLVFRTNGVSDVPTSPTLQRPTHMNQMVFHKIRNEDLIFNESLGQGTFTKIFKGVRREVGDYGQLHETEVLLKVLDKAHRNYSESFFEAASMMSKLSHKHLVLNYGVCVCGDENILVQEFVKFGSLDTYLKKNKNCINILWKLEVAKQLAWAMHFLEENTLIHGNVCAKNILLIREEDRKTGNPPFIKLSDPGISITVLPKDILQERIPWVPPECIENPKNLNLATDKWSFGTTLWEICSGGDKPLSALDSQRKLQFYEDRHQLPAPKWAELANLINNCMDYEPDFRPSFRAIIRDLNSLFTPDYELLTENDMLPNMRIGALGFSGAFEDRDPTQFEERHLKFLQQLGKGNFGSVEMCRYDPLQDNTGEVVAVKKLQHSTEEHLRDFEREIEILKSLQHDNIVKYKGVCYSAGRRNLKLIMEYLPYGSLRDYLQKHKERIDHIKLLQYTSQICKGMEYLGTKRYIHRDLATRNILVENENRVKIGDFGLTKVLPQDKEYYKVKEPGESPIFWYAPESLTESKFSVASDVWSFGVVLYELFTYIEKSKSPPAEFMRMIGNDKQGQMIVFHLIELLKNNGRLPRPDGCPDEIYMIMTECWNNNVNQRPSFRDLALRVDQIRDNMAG

AncSZ = assay: as above
Fyn = Fyn (UniProt P06241); assay: as above
Grb2 SH2 = Grb2 SH2 (UniProt P62993); assay: SH2 binding enrichment of the phosphorylated peptide, bacterial display (enrichment ratio); higher = better substrate or ligand; peptides without Tyr show the background
SHP2-C SH2 = assay: as above
c-Src SH2 = assay: as above
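Wherever SH2 binding enrichment of the phosphorylated peptide, bacterial display is given: peptide library displayed on the E. coli surface as eCPX fusions, selected cells deep-sequenced, score is each peptide's frequency after selection divided by its frequency in the input.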
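Wherever phosphorylation enrichment, bacterial display is given: 11-residue human phosphosite peptides and single-mutation variants displayed on the E. coli surface, counted by deep sequencing, each peptide's frequency after selection divided by its frequency in the unselected input library; frequency after pTyr selection over input frequency; kinase dosed for 20-30% of maximal phosphorylation in three min.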

Fes, sequence (P07332 whole entry, looked up): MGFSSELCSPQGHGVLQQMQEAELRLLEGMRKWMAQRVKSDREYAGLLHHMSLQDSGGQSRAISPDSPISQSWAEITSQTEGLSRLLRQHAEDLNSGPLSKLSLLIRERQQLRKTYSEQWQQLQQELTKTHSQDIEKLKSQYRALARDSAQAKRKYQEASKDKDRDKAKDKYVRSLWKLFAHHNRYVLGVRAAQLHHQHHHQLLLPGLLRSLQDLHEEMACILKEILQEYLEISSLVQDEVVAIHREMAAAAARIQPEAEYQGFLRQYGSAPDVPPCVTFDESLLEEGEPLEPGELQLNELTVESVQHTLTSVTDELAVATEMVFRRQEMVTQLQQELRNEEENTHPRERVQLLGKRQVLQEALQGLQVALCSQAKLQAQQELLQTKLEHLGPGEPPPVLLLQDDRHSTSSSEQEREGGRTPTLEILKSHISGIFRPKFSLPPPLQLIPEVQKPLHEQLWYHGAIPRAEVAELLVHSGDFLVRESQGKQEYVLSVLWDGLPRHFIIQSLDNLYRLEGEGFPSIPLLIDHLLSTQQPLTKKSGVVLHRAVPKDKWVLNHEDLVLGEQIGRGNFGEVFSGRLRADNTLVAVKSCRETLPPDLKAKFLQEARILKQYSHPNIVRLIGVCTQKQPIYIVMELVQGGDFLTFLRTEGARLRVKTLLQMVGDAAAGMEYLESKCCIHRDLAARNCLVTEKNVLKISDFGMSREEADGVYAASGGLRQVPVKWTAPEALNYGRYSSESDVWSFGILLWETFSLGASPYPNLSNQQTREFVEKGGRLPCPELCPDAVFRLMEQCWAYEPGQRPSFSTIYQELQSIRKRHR

Sequence: LLGFLYFFVCS [SLC34A2_Y109]
phosphorylation enrichment (c-Src): 2.1
phosphorylation enrichment (Fes): 3.17
phosphorylation enrichment (EPHB2): 1.76
phosphorylation enrichment (EPHB1): 1.17
phosphorylation enrichment (Hck): 0.948
phosphorylation enrichment (FGFR3): 1.81
phosphorylation enrichment (Fer (mouse)): 1.43
phosphorylation enrichment (c-Abl (mouse)): 2.89
phosphorylation enrichment (FGFR1): 1.03
phosphorylation enrichment (MERTK): 1.04
phosphorylation enrichment (Jak2): 2.88
phosphorylation enrichment (AncSZ): 1.66
phosphorylation enrichment (Fyn): 1.26
SH2 binding enrichment (Grb2 SH2): 1.06
SH2 binding enrichment (SHP2-C SH2): 1.22
SH2 binding enrichment (c-Src SH2): 0.776

Sequence: LNYNEYFRDLN [HPRT1_Y198_D194N]
phosphorylation enrichment (c-Src): 0.518
phosphorylation enrichment (Fes): 1.6
phosphorylation enrichment (EPHB2): 1.12
phosphorylation enrichment (EPHB1): 1.4
phosphorylation enrichment (Hck): 0.879
phosphorylation enrichment (FGFR3): 1.38
phosphorylation enrichment (Fer (mouse)): 0.878
phosphorylation enrichment (c-Abl (mouse)): 1.01
phosphorylation enrichment (FGFR1): 1.29
phosphorylation enrichment (MERTK): 0.559
phosphorylation enrichment (Jak2): 1.57
phosphorylation enrichment (AncSZ): 1.82
phosphorylation enrichment (Fyn): 0.996
SH2 binding enrichment (Grb2 SH2): 0.985
SH2 binding enrichment (SHP2-C SH2): 0.672
SH2 binding enrichment (c-Src SH2): 0.443

Sequence: DAVAVYHGKIS [SH2D1A_Y7]
phosphorylation enrichment (c-Src): 0.348
phosphorylation enrichment (Fes): 0.744
phosphorylation enrichment (EPHB2): 0.442
phosphorylation enrichment (EPHB1): 0.395
phosphorylation enrichment (Hck): 0.533
phosphorylation enrichment (FGFR3): 0.492
phosphorylation enrichment (Fer (mouse)): 0.379
phosphorylation enrichment (c-Abl (mouse)): 0.51
phosphorylation enrichment (FGFR1): 0.388
phosphorylation enrichment (MERTK): 0.369
phosphorylation enrichment (Jak2): 0.603
phosphorylation enrichment (AncSZ): 0.593
phosphorylation enrichment (Fyn): 0.442
SH2 binding enrichment (Grb2 SH2): 0.717
SH2 binding enrichment (SHP2-C SH2): 0.82
SH2 binding enrichment (c-Src SH2): 0.406

Now from value to sequence, other results behind:

SH2 binding enrichment (Grb2 SH2): 0.908
SH2 binding enrichment (SHP2-C SH2): 0.627
SH2 binding enrichment (c-Src SH2): 0.971
Sequence: IGVDSYSVCKR [RPS6KA3_Y433_G431D]
phosphorylation enrichment (c-Src): 0.322
phosphorylation enrichment (Fes): 0.577
phosphorylation enrichment (EPHB2): 0.418
phosphorylation enrichment (EPHB1): 0.402
phosphorylation enrichment (Hck): 0.387
phosphorylation enrichment (FGFR3): 0.405
phosphorylation enrichment (Fer (mouse)): 0.366
phosphorylation enrichment (c-Abl (mouse)): 0.417
phosphorylation enrichment (FGFR1): 0.381
phosphorylation enrichment (MERTK): 0.338
phosphorylation enrichment (Jak2): 0.462
phosphorylation enrichment (AncSZ): 0.537
phosphorylation enrichment (Fyn): 0.347

SH2 binding enrichment (Grb2 SH2): 0.836
SH2 binding enrichment (SHP2-C SH2): 0.664
SH2 binding enrichment (c-Src SH2): 0.557
Sequence: STEAIYRRYSK [SH3PXD2B_Y42]
phosphorylation enrichment (c-Src): 0.52
phosphorylation enrichment (Fes): 0.418
phosphorylation enrichment (EPHB2): 0.441
phosphorylation enrichment (EPHB1): 0.302
phosphorylation enrichment (Hck): 0.425
phosphorylation enrichment (FGFR3): 0.425
phosphorylation enrichment (Fer (mouse)): 0.341
phosphorylation enrichment (c-Abl (mouse)): 0.709
phosphorylation enrichment (FGFR1): 0.41
phosphorylation enrichment (MERTK): 0.466
phosphorylation enrichment (Jak2): 0.534
phosphorylation enrichment (AncSZ): 0.511
phosphorylation enrichment (Fyn): 0.456
